From paper PMC11931385, “Structural and functional analysis of cancer-associated missense variants in the retinoblastoma protein pocket domain” (The Journal of Biological Chemistry, 2025)
Substitutions are numbered along the chain they refer to. Numbers in names are those of the source. No end group written: not given here. TMR = tetramethyl rhodamine dye

Experiments:
Test in all cases: fluorescence polarisation; 25 °C; unlabeled Rb^P titrated against 1.5 nM TMR-E2F1^TD or 7.5 nM TMR-E7^LxCxE; 25 mM Tris pH 8.0, 200 mM NaCl, 1 mM DTT, 0.1% Tween-20; 2 min incubation; quadratic fit; apparent Kd for the variants, Kd for WT
Conditions in all cases: both partners purified
[1] = target: T1, retinoblastoma protein pocket domain (Rb^P), wild type (human, UniProt P06400 380-788)
T1 construct: also called WT Rb^P; WT
T1 sequence (looked up): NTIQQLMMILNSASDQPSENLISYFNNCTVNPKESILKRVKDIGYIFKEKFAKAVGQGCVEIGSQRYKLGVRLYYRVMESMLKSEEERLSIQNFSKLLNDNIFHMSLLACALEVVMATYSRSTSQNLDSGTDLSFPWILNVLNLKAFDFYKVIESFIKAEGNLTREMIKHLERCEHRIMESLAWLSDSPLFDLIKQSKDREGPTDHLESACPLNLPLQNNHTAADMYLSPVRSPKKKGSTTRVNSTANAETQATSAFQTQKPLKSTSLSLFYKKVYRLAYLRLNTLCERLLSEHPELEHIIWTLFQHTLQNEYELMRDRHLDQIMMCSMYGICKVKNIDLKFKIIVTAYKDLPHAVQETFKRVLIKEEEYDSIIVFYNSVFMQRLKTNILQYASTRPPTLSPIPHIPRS

Rb^P S443L = target: T2, Rb^P S443L (human, UniProt P06400 380-788, S443L)
T2 construct: also called variant 2
T2 sequence (looked up): T1 sequence (looked up) with S64L

Rb^P H555Y = target: T3, Rb^P H555Y (human, UniProt P06400 380-788, H555Y)
T3 construct: also called variant 29
T3 sequence (looked up): T1 sequence (looked up) with H176Y

Rb^P L572I = target: T4, Rb^P L572I (human, UniProt P06400 380-788, L572I)
T4 construct: also called variant 31
T4 sequence (looked up): T1 sequence (looked up) with L193I

Rb^P R621C = target: T5, Rb^P R621C (human, UniProt P06400 380-788, R621C)
T5 construct: also called variant 41
T5 sequence (looked up): T1 sequence (looked up) with R242C

B1: TMR-E2F1^TD, peptide of the E2F1 transactivation domain (peptide)
peptide: {TMR}-GEGIRDLFDCDFGDLTPLD
notes: also called E2F^TD; source: synthetic peptide, bought: GenScript
Work on B1 yielded a Kd [1] of 14 nM, a Kd (Rb^P S443L) of 31 nM and a Kd (Rb^P H555Y) of 158 nM. The Kd (Rb^P L572I) was 37 nM and the Kd (Rb^P R621C) was 22 nM.

B2: TMR-E7^LxCxE, LxCxE peptide of the E7 oncoprotein from HPV (peptide)
peptide: DLYCYEQLN
modifications: also: TMR label, position not given here
notes: source: synthetic peptide, bought: GenScript
Binder B2 has a Kd [1] of 5 nM, a Kd (Rb^P S443L) of 9 nM and a Kd (Rb^P H555Y) of 8 nM. The Kd (Rb^P L572I) was 4 nM and the Kd (Rb^P R621C) was 12 nM.
